In patent publication US8318163 (Genentech, dated 2012):

T1: human Nrp2 b1b2 (human, UniProt O60462 275-595)
T1 construct: range 275-595; Range is that of the crystallization construct; also called Nrp2 b1b2 domains
T1 sequence (looked up): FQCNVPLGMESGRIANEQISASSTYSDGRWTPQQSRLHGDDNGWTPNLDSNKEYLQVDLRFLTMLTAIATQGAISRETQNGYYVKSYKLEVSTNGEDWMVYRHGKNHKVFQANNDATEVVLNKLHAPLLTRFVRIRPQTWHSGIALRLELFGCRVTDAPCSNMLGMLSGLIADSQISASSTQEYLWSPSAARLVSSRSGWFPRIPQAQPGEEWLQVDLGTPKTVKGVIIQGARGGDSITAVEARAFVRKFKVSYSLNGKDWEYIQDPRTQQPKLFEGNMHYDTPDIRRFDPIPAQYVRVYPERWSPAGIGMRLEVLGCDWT

T2: human Nrp1 protein (BIAcore analyte) (human, UniProt O14786 22-586, limits assumed)
T2 construct: no residue range for such an Nrp1 construct is printed; also called neuropilin-1
T2 sequence (looked up): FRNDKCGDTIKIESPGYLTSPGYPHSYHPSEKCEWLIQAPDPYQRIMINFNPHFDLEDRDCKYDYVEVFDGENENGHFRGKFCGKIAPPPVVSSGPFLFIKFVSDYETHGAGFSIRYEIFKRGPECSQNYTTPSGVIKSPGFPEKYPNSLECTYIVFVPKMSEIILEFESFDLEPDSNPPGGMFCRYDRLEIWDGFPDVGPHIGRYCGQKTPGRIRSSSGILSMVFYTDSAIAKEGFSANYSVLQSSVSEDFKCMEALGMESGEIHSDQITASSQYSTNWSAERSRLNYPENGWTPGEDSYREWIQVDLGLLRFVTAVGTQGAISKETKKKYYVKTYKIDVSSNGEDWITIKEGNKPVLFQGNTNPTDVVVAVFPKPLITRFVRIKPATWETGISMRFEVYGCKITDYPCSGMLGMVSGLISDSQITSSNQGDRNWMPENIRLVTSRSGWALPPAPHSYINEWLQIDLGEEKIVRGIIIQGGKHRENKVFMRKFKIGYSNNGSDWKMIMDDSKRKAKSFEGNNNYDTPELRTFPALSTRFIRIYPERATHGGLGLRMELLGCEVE

T3: human Nrp2 a1a2b1b2 (human, UniProt O60462 21-595, N-glycosylated (two sites within the a2 domain seen in the monoclinic crystal form))
T3 construct: range 1-595; The printed range begins at Met1 and so includes the native signal peptide, which is cleaved on secretion
T3 sequence: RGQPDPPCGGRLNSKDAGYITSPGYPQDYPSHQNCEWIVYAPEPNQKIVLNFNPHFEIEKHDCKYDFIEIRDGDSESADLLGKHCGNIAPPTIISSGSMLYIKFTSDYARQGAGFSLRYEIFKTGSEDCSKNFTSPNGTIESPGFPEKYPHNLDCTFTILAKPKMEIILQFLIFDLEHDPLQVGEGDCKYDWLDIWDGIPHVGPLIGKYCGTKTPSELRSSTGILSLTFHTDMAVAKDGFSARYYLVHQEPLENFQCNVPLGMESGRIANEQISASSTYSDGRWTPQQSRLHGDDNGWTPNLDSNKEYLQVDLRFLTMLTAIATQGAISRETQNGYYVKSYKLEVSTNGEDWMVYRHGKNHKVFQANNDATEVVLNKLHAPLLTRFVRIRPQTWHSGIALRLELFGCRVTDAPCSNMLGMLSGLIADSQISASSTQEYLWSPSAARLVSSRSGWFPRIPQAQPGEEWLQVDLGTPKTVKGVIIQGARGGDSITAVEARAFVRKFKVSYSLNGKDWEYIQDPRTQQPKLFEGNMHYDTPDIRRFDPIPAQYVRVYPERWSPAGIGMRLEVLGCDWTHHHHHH


What was measured:
[1] = biological target: the molecule itself; assay: multi-angle light scattering, self-association
human Nrp2 b1b2 = biological target: T1, human Nrp2 b1b2; assay: BIAcore (SPR), 500 nM Nrp protein injected over immobilized IgG at 25 C
Text: (§1) Figure 11: FIG. 11—Analysis of anti-Nrp antibody binding kinetics. BIAcore kinetic analysis of anti-panNrp[4] antibody.

[2] = biological target: T2, human Nrp1 protein (BIAcore analyte); assay: BIAcore, IgG immobilized on the chip, human NRP protein injected, 25 C; Nrp1 (first of the two affinities)
Text: as §1

human Nrp2 a1a2b1b2 = biological target: T3, human Nrp2 a1a2b1b2; assay: BIAcore, IgG immobilized on the chip, human NRP protein injected, 25 C; Nrp2 (second of the two affinities)
Text: as §1

Row | Binder | binding result [1] | binding result (human Nrp2 b1b2) | Kd [2] | Kd (human Nrp2 a1a2b1b2)
1 | human Nrp2 a2b1b2 (receptor, UniProt O60462 145-595, looked up, range 145-595; Purified on Ni-NTA; the tag of this construct is not described) GSEDCSKNFTSPNGTIESPGFPEKYPHNLDCTFTILAKPKMEIILQFLIFDLEHDPLQVGEGDCKYDWLDIWDGIPHVGPLIGKYCGTKTPSELRSSTGILSLTFHTDMAVAKDGFSARYYLVHQEPLENFQCNVPLGMESGRIANEQISASSTYSDGRWTPQQSRLHGDDNGWTPNLDSNKEYLQVDLRFLTMLTAIATQGAISRETQNGYYVKSYKLEVSTNGEDWMVYRHGKNHKVFQANNDATEVVLNKLHAPLLTRFVRIRPQTWHSGIALRLELFGCRVTDAPCSNMLGMLSGLIADSQISASSTQEYLWSPSAARLVSSRSGWFPRIPQAQPGEEWLQVDLGTPKTVKGVIIQGARGGDSITAVEARAFVRKFKVSYSLNGKDWEYIQDPRTQQPKLFEGNMHYDTPDIRRFDPIPAQYVRVYPERWSPAGIGMRLEVLGCDWT | no binding | – | – | –
2 | anti-panNrp^A antibody, clone YW68.11.26 (IgG) (antibody, V domains shown, Human IgG1 from a synthetic phage library; immobilized as IgG on the BIAcore chip) VH: EVQLVESGGGLVQPGGSLRLSCAASGFTISGYGIHWVRQAPGKGLEWVAYIYPDSGYTDYADSVKGRFTISADTSKNTAYLQMNSLRAEDTAVYYCAREDFRNRRRLWYVMDYWGQGT VL: DIQMTQSPSSLSASVGDRVTITCRASQDVSTAVAWYQQKPGKAPKLLIYSASFLYSGVPSRFSGSGSGTDFTLTDSSLQPEDFATYYCQQAWAYLTTFGQGTKVEIKR | – | no binding (tested: 500 nM) | 0.21 nM | 0.15 nM
3 | full-length human Nrp2-ECD (a1a2b1b2c) (receptor, extracellular domain) RGQPDPPCGGRLNSKDAGYITSPGYPQDYPSHQNCEWIVYAPEPNQKIVLNFNPHFEIEKHDCKYDFIEIRDGDSESADLLGKHCGNIAPPTIISSGSMLYIKFTSDYARQGAGFSLRYEIFKTGSEDCSKNFTSPNGTIESPGFPEKYPHNLDCTFTILAKPKMEIILQFLIFDLEHDPLQVGEGDCKYDWLDIWDGIPHVGPLIGKYCGTKTPSELRSSTGILSLTFHTDMAVAKDGFSARYYLVHQEPLENFQCNVPLGMESGRIANEQISASSTYSDGRWTPQQSRLHGDDNGWTPNLDSNKEYLQVDLRFLTMLTAIATQGAISRETQNGYYVKSYKLEVSTNGEDWMVYRHGKNHKVFQANNDATEVVLNKLHAPLLTRFVRIRPQTWHSGIALRLELFGCRVTDAPCSNMLGMLSGLIADSQISASSTQEYLWSPSAARLVSSRSGWFPRIPQAQPGEEWLQVDLGTPKTVKGVIIQGARGGDSITAVEARAFVRKFKVSYSLNGKDWEYIQDPRTQQPKLFEGNMHYDTPDIRRFDPIPAQYVRVYPERWSPAGIGMRLEVLGCDWTDSKPTVETLGPTVKSEETTTPYPTEEEATECGENCSFEDDKDLQLPSGFNCNFDFLEEPCGWMYDHAKWLRTTWASSSSPNDRTFPDDRNFLRLQSDSQREGQYARLISPPVHLPRSPVCMEFQYQATGGRGVALQVVREASQESKLLWVIREDQGGEWKHGRIILPSYDMEYQIVFEGVIGKGRSGEIAIDDIRISTDVPLENCMEPISAFAGENFKVDIPEIHEREGYEDEIDDEYEVDWSNSSSATSGSGAPSTDKEKSWLYTLDPHHHHHH | no binding | – | – | –
